{"source": "paper doi:10.1101/2023.04.13.536481", "about": "(bioRxiv, 2023)", "proteins": {"B1": {"name": "LIN-42 N-terminus residues 41-315 (domain or fragment, C. elegans)", "chain": "GAMDPEFNTWSSSSVEFLDDADDNRLLFTCTFTLPHGTVLSSATYADGFHEQYLTIGDNFLARLEPKGQSFILSAAAASVKQRIFARVTMPDGALRACELLCEFETDRAKITVLALRSAFSLQASHVSSNFHVFTFITKHSSTCALTHIDYASIPYLGLLPTDLIGKSLLAFVYSPDVHVVRQAHIDLHNSRGKIVKSIADLRLVAHNGSILRCQTEWSAYVNPWTRKMELVVARHRICSLPIGDSDVISSPPPGIQSNTLPPVMAKTFEDELRTIMNKPVP"}}, "biological_target": "the molecule itself", "test": "crystal structure"}
{"protein": "B1", "values": [{"measurement": "binding result", "result": "binds"}]}
